In the DeepSol protein solubility set:

Assay: soluble on expression in E. coli; label from the status in PepcDB or PDB records

| Sequence | soluble on expression in E. coli |
| --- | --- |
| MGSDKIHHHHHHMLSVAIPKAKPLLKQEKVATTAQKNQKEVIHYTAIGDSLTEGIGDLTNSGGFVPIVADDLKEHYNLNGVQTDNFGKNGDRSDQILKRIKEKPEIQKGLASADVITLTVGGNDLMKVISSNIFDLKVSSFNRPQKAYQRRVRRLLEEIREYNEKAPIYVLGIYNPFYLNFSEITEMQEIVDNWNQATEEMVQEQKRAYFIPINDLLYKGRGDEVGVTGGDSETTGSSASKEDLNNLLYEEDRFHPNNLGYQIMAGAVRDEMVKTEKEWITKSEGSE | not soluble |
| MGSDKIHHHHHHMLTKTIIGLDVGRSAVKVVAFANGLYYRLTFPSLVSPAFPINDEGTAARAELETVEVLGKRYFTGDTARLQGGVNMSVGLSHDWTNGPEYLALVASTMKRLAALGVPGLDSPYIVLGTPASLFGRQKEALAQRTQAVVAAEMKVLPQPMGAYCNFFMDARGVPIKDRQKRPDGKNRSWAVVEVGHYTTDFLLMREGNYIERAAVSCEGVHFAAENLVRILAAKDIQATPLTAEEALRTGVIVDFGERRIEAQVAEAVDHVVQKIMTMADSVLSNDVRSLDGVLLAGGGAPILAAGLQKKWPHTVLLENPRMAVADGFCRYGVGQMLRRAMAAEKATA | not soluble |
| MGSDKIHHHHHHMLTTPEMREQFRNDGVTIFRNCLNEAQLAQCYDGFKWDMANPGPHVYKGGLIGTTLHTHIDIANPEAKSELDDLAAALPFGQIFQELWDSKNVWYFAEEIFAKEGGKSGRGPWHQDTANLPWAGRHWGNAWISFQKLPKKNSLEIVRGSHLGIQYDGASFDSAEDPTDPLYGDGTYPRLPHIDNELARDPNSWDIVSFDINPGDIVLLHPRSLHGGAQVDADCPTRHTLVLRFFGDDATFRELPTCNPKYARNGPLFQKEMAKLNQGDAFRSPVFRQVAGV | not soluble |
| MGSDKIHHHHHHMLVKKISPRGYCYGVVDAMKLAQQAALNDNLPRPIHILGMIVHNAHVTREFERMGVLTVDGPDRLEALETIKEGTVIFTAHGISPAVYARAAEKKLTVVDATCPDVTRTHDLIRSVVADDYEVIYVGKHGHPEPEGAVGVAPEHVHLIEKVEDIEALPAHLADKKIIVTNQTTMSQWDVQALMEHVRKKYPHVEVHNEICNATQVRQEAVAEQAGDCDLVIVVGDPRSNNSNRLAQVSFDIAATPAHRIGDLTELDLSWLDGVNQVGVTSGASTPTPITKKVIDFLQQYDPADISTHDKTPFLELRRILPKVKIL | not soluble |
| MGSDKIHHHHHHMLVNAYFIKLDSCQLPPRDLAVSVFLNLSKFNMPLTMPHLLELFVDSYFIEKKKRLRQCLQEPLDCGPVFHFSEPWEGLLSGYCTVLEDPLDGYFKLYYRGLSDGNLECSDGEVTCLALSHNGVEWFRPNLGLHKWLNRKSTNIILANNTPDSHNFTPFLDSSPTTLSHQRYKALAGVAPSGLNAYFSADGINWTNPYSKPVLTTGMFDSQNVAFWSSSEQKYVCFMRTWTGEGFSGIRTISRSTSTDFSSWTVPRRMSFGRIPLEHLYTNQTQPYPRAQQIYIGLAARFMPERQVITTEEALELSVDPSYYRDCSDVVLITSRGGNRYHRAVRQAFLKPGIGLENWVSRTNFPALGFIHTKPDEISFYMNKNYAQPNAYLSRFSFPLDRLGYLEASDSYGELITKSIPISSQDDLHLNLSTSAAGSCFVALLDENDATVSQFDMSSCLELIGNELSKPVRWLSSNGVSLRIGDSGLSSVKLHIRLLDARLFAFSLCSTDR | not soluble |
| MGSDKIHHHHHHMLYQLHEFNRSLLNPLMHWAEASSRLFTDPASPLAYTPYAQRIAAGYELLYRLGKQYEKPNFNIESVLVNGKTVAIVEEETEKKSFCTLIHFRKKLSAKEFAALKQPVVLLVAPLSGHHSTLLRDTVRSLLQDHDVYITDWTDARMVPLAEGPFHLHDYVYYIQDFIRRLGPDLHVISVCQPTVPVLAAISLMASERDPRLPKTMTMMGGPIDARKSPTQVNDLAVEKPHAWFENQVIYSVPPSYPGFGRKVYPGFLQHAGFIAMNPGRHAQSHWDFYMHLREGDNESAEEHRKFYDEYNAVLDMPAEYYLETIKTVFQEHRLPLGTWEIEGKLVRPQDIKSVALFTIEGEKDDISGAGQTHAAQDLCSALPQSDKQQFTAPQCGHYGIFSGRKWREIIAPKIGEFITRYS | not soluble |
| MGSDKIHHHHHHMMFEDTHDEHVLLTPGPTPIHPRAQKALIRSMLGHMDPEVFALNSEIQRDLREMYGTEPEGFTALLAGTGSLGMEAGFANLVEAGDEVLVCANGSFGRRMAEMAARYGAKVRLVTAPLGEAIKPADVAAHLDDDISMVAVVHGETSTGVLNPVPEIAELVRGSGALLTVDAVTTAGMEPFHMQQWGVDYAYTGAQKCLSAPPGLAPVAISERAFSRFAARRTQTPLWYCDFEGLRDYWVNHTYHHTVPVNLHFAFHAALRAALEEGLEARQARVRLMGRVIERTLAPLGFSHYVRRPEDRLPTVLALRLPEGFDDAGLRQALRQREISVTGGLGPTAGVIWRLGLMGESARPGPYHRLMTELEDLLGAPGLLDRYEAVLAEEQRGELALA | not soluble |
| MGSDKIHHHHHHMMHDDQVNIDIDIARKMIRDQFPQYRHEDITSVGSSGTVNAIFRIGSKSAARFPLRAMNPTECADMLRSEAAAMVEIGKHCLFPTPQPIGIGEPGPRYPMPWALQTWIEGEVATPHGLSGSTMFALDLARLVASLRQADTRGRRFDGQGRGGHLPDHDDWMAVCLENSEGLLDVARLRDLWARLRELPCAGSVVMSHKDLIPANLLVQGERLVGVLDGGSFGPADPSLDLVVGWHLLDRERRAAFRSGLQVEDLLWKRGAAWAFQQAMGLVWYYRRTNRAMSALGRSTLSRILADPDI | not soluble |
| MGSDKIHHHHHHMMKHLTLWHTNDVHSHLEHWPRIFNFLKEKRTAADKENQSALFFDIGDFLDRVHPLTEGTNGLANTDLLNQLPYDVVTFGNNEGTTLAHEDLDKLYEHAVFPVVCCNFYTNKECTEQPDWVKSIVYKEIEQVKIAIIGATAPFRDYYEEMGWGIEEPISSIKKQVAGLDEDTDVVILLSHLGLPSDERIALEIPEVDVILGGHTHHLLETGKIEGNALLAAAGRWGEYIGKVDIELDENNQILTKTAMTFKTEDLPAAPNEANEIQGFFDKGRAELSEKVVAIPGKLAHNWFDDSEIAHILNEAVCEWTGAETFVMNAGIFMTDFEAGIVTDFDIHQMLPHPLNAIALTMSGEELEILIDGIYRKKAELQDIPLRGFGFRGEYFGTVLMERAGFDAENQVALFDNKPIDKTREYRIATHDTFVFAPFFPIVKQIKRKEVYTPELLRDILKWKLKKMYGQEEDK | not soluble |
| MGSDKIHHHHHHMMKKKWYIVLTMSGYEEKVKENIEKKVEATGIKNLVGRIVIPEEVVLDATSPSERLILSPKAKLHVNNGKDVNKGDLIAEEPPIYARRSGVIVDVKNVRKIVVETIDRKYTKTYYIPESAGIEPGLRVGTKVKQGLPLSKNEEYICELDGKIVEIERMKKVVVQTPDGEQDVYYIPLDVFDRDRIKKGKEVKQGEMLAEARKFFAKVSGRVEVVDYSTRKEIRIYKTKRRKLFPGYVFVEMIMNDEAYNFVRSVPYVMGFVSSGGQPVPVKDREMRPILRLAGLEEYEEKKKPVKVELGFKVGDMVKIISGPFEDFAGVIKEIDPERQELKVNVTIFGRETPVVLHVSEVEKIE | not soluble |
| MGSDKIHHHHHHMMNERIKQRRKELGLTQPSIAKTIGLTKATISLWESGSTSPKGENLHALAKALRCAPEFLLFGNDSIKPEPNAEWAGGFETWGSNSPLGDDEVEIPFYMEVELAAGDGIIDCREYQGPKLRFAKSTLKRQGVTSDHAACVKVNGNSMEPVLPNGSTVGVDTAHTDIVDGKMYAINHDGMLRVKMLYKLPGGGLRLRSYNLDEYPDERLDAEELKQVKVIGKVFWYSVLV | not soluble |
| MGSDKIHHHHHHMMTSTPRLLQAIQQTTTAILKTNLVGIYLHGSYVLGSYNEQVSDLDYLIVVRRSLTLAEKRQLMTATITQLWPLAPHKGLEFHVLLLSATQHFVHPCPFDFHFSKYHYEDYQRTPLAYLKAMHGTDPDLAAHLTILQAAGQVLLGPAITTVFGPIPAVAYWDSIKSDIANAETAIVQLPMYTVLNLCRVRAYQQDQLIISKQAGGEWGLQQLPTQWHPLIRQALAAYAGQQDEQVIRWSRPNLVAFARIMLAELGLKSE | not soluble |
| MGSDKIHHHHHHMMWEQFKKEKLRGYLEAKNQRKVDFDIVELLDLINSFDDFVTLSSCSGRIAVVDLEKPGDKASSLFLGKWHEGVEVSEVAEAALRSRKVAWLIQYPPIIHVACRNIGAAKLLMNAANTAGFRRSGVISLSNYVVEIASLERIELPVAEKGLMLVDDAYLSYVVRWANEKLLKGKEKLGRLQEALESLQRENAYCSD | soluble |
| MGSDKIHHHHHHMNAPLNHPLPLLDLDVLRTFVAIAETGSFTTAANAVFRTPSAVSMQIKKLEDILGRSVFARDARSVSLTTDGEMLLGYARRLLSINREVVSKFIIPEIVGVVRLGSPDDYGERVLPHVLKRFAQSHPSIAVDVTIDQSSNLRRRMDDRALDITLLTNSYKTSALGAEVLLTEPIVWAGAKGGCAHLREPLPVSLWEEGCAWRAGALEALGREGRNYRVAYMSAHTAGQRAAIMADLAVAPLPRSFLGNDMVELCPKDGMPDIGTYNLAMVVAPDASAPVKAVADHIRATFEVFRETGKF | not soluble |
| MGSDKIHHHHHHMNAVLQKKGGVGIIILARLDSTRLPGKALRTAAGKEMLGYVVERARMVRGVSEIVLATTDRTVDDRLEEYAAACDLAVFRGSDVDVAGRVAACVRWRGWDAFVRINGDSPFIDPQTISSAVNLLYGLGGVSAAGLSDSHAQRGNMHAECASLPLVACGSVTLAGYAGHDATELPDMVTNVLRRTFPKGQSVEVCRASAFLAGYAAMHLPEHLEHVTKYFYDTRSIRIMNMESGDPSLGEIQLAVDTEEDFALFERMLARMDRPHTAYAAHEIIELYRECLHG | not soluble |
| MGSDKIHHHHHHMNDDFLFSDDEPDIAEEEVSEPYNILIVDDDEEIHTITKMALGEFKLDGRPLKFHSVYSGKDAIAFLQDNTNIAMMLLDVVMETDHAGLDVAQWVRETRKNRLIRIVLRTGQPGQAPEEDVIARYDIDDYKEKTELTYRKLVTLMYSCLRAYRDLNAIERNKRGLEKVINASAEVFSARSMQALCQGILEQLVALITLSDDAMYCRIDALTASSDTDDPFEIIGGTGEYEEAVGQPVHGEIDWDIVRPMQQSPQNVDFRIVDGNYYGLYKTSSSRQYLLFIRGVRDLSELDQNLLGLFVNNSSIAIDNLQATENEREAQRELLYSVGEAIEKHSIDEISHHVKRSAEMAGQLAIFSGATQEQAEALKQAASVYDIGKVSVQMELAQRADVLSIHEYEEIMQKVIQGHDYLRQTDSAVAKVAALIAQDIHERWNGSGFPSQKSAKAIDLNARILSITSHFDALRTQRNYRDAKESEDAADYLLQHSGKFFDPELVGLMLDNLDAMEKIRQRFLDKKQDTRH | not soluble |
| MGSDKIHHHHHHMNDLSRSPYILEMRNVSKTFPGVKALDGINLKVKRGTIHALMGENGAGKSTLMKILYGIYTPDAGGELILDDKPFKPSAPIDAIRTGLTMVPQEISPAGNLTIADNFYLGREITRSKFFLNQKEMDCKTAEILNELGIPMDVTAKMSDVSVAKAQLVAIATAVSNDAKVIIMDEPTTALTEVEVEQLYKIIETVRQRGISIIFISHKLDEVFRVSDEITVIRDGQYVGTKLTSEVTKDELISMMVGRDMSEMFQRERIVISDEVVLEIKNFSRAGKYHDINFQVRRGEIFGIAGLVGAGRSEIVEGLFGYKLADSGEIYVHGEKADIKTPLDAMKYKIGFVTEDRKLTGLFLNLSITDNMIMPRMSPYLENFLVSVTKAQKSANAQKDKLKIKAPNVEVITNNLSGGNQQKVLLARWLLLEPDILILDEPTKGIDVGAKAELYKLMVELAKQGKSIIMITSDMLELLSMSDRVMVMHEGRVAGIIPQEELTQERVLELASGLGQV | not soluble |
